# Measurements taken from US20050181997A1.
# Target: Flt3 3T3 cells (mFlt3/fms 3T3 cells and/or Stk 3T3 cells)
# Test: cell-based or functional assay
substance,measurement,value
"Pv-FRIL (FRIL family member from Phaseolus vulgaris, red kidney bean)","Specific Activity (u/mg) in the Flt3 3T3 assay, Superdex 75 step",244000 u/mg
